Legend:
[1] = target: T1, human MCAM domain 1 (amino acids 19-129), Fc-tagged (human, UniProt P43121 19-129); experiment: ForteBio domain mapping as in Example 8
T1 construct: also called MCAM Fc domain 1
T1 sequence: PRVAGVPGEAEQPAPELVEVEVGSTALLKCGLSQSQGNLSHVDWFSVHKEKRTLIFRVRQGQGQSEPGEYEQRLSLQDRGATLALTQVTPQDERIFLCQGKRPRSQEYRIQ

[2] = target: T2, human MCAM domain 2 (amino acids 139-242), Fc-tagged (human, UniProt P43121 139-242); experiment: ForteBio domain mapping as in Example 8
T2 sequence: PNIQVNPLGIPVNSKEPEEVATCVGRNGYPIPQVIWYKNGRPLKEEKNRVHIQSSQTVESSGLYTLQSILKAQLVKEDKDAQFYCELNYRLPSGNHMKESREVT

[3] = target: T3, Recombinant human Fc-tagged MCAM IgG1-2A (human MCAM domains 1 and 2, amino acids 19-242) (human, UniProt P43121 19-242); experiment: ForteBio domain mapping as in Example 8
T3 construct: also called human MCAM IgG1-2A; MCAM Fc domains 1 and 2; not shown: human Fc tag
T3 sequence: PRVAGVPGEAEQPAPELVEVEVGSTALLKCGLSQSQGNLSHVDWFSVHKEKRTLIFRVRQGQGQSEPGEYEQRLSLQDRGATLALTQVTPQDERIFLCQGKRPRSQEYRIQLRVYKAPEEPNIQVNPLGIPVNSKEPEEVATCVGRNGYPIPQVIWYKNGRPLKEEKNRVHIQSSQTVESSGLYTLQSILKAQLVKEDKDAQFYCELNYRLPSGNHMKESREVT

[4] = target: T4, human MCAM domain 3 (amino acids 244-321), Fc-tagged (human, UniProt P43121 244-321); experiment: ForteBio domain mapping as in Example 8
T4 construct: also called domain 3 of the human MCAM protein
T4 sequence: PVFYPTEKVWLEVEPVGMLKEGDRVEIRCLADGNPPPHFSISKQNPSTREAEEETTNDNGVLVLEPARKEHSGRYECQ

[5] = target: T5, recombinant hMCAM-His (human, UniProt P43121 24-559); experiment: ForteBio Octet Red, hMCAM-His analyte; Expt. #2; vs rodent 1749
T5 construct: not shown: His tag
T5 chain: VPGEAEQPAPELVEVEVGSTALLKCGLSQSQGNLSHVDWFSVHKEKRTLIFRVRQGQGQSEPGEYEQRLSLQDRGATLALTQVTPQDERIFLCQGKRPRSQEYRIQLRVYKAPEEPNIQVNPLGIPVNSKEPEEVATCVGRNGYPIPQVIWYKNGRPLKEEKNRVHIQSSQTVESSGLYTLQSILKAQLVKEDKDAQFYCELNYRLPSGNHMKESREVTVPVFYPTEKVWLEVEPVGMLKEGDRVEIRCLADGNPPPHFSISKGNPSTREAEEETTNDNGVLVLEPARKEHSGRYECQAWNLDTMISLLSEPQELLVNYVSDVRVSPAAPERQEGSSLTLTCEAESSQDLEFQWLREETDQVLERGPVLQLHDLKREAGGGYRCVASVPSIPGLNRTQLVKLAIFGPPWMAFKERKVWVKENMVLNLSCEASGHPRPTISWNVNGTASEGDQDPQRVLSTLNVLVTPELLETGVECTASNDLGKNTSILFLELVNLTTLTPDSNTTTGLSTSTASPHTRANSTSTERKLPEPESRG
Procedure: (§1) The affinities were measured using the ForteBio Octet Red. Anti-human Fc sensors were used to capture the humanized antibodies, and several concentrations of hMCAMHis analyte were used to determine the affinity using a 1:1 fitting model.

[6] = target: T5, recombinant hMCAM-His; experiment: ForteBio Octet Red, hMCAM-His analyte; Forte column 1; vs rodent 1749
Procedure: as §1

[7] = target: T6, human MCAM (melanoma cell adhesion molecule) expressed on transfected CHO cells (human, UniProt P43121 24-646); experiment: laminin/FACS on hMCAM CHO cells, competitor laminin 411; Expt#1; vs rodent 1749
T6 construct: also called hMCAM; CD146
T6 chain: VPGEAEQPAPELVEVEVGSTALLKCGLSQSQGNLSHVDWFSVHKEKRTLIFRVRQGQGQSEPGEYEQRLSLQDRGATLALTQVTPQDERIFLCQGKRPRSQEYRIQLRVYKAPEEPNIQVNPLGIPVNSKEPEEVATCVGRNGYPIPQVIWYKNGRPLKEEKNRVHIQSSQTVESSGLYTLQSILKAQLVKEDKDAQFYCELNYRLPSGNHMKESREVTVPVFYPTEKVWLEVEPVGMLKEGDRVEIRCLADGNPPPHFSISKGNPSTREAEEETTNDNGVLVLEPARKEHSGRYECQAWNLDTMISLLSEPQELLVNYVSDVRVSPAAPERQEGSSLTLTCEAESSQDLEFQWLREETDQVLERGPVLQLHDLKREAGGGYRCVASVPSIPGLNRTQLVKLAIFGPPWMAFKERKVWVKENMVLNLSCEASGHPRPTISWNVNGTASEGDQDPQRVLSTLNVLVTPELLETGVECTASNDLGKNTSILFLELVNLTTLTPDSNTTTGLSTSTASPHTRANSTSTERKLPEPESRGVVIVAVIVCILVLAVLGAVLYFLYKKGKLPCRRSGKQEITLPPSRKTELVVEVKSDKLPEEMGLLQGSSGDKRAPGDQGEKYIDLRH
Procedure: (§2) Following incubation for 30-45 minutes, the cells were washed and anti-laminin conjugated to AF650 (NovusBio) was added to detect the bound laminin. The cells were run on a flow cytometer to measure the laminin binding signal.

[8] = target: T6, human MCAM (melanoma cell adhesion …); experiment: laminin/FACS on hMCAM CHO cells, competitor laminin 411; Expt#2; vs rodent 1749
Procedure: as §2

[9] = target: T5, recombinant hMCAM-His; experiment: competitive ELISA on hMCAM-His, competitor biotinylated rodent or chimeric 1749; Expt. #1; vs rodent 1749
Procedure: ELISA plates were coated with recombinant hMCAM-His, and blocked with casein buffer to prevent non-specific binding. Biotinylated rodent or chimeric antibody was added at a subsaturating concentration, in the presence or absence of 3× increasing concentrations of unlabeled competitor (humanized antibody, rodent, or chimeric). After washing to remove unbound antibody, streptavidin HRP was added to allow detection of the biotinylated antibody. The ELISA was developed with TMB substrate and the OD450 was measured. The IC50 of the unlabeled competitor was determined using the GraphPad Prism5 software.

binding result [1]: no binding
binding result [2]: no binding
binding result [3]: no binding
binding result [4]: binds
fold over rodent (Forte affinity) [5]: 1 fold
fold over rodent (Forte affinity) [6]: 1 fold
fold over rodent (blocking, laminin/FACS) [7]: 1 fold
fold over rodent (blocking, laminin/FACS) [8]: 1 fold
fold over rodent (competitive ELISA) [9]: 1 fold
B1: mouse anti-human MCAM monoclonal antibody clone 1749.1.3 (antibody, V domains shown)
VH: DVKLVESGGDLVKPGGSLKLSCAASGFTFSSYIMSWVRQTPEKRLEWVATISSGGSSTYYPDSVKGRFTISRDNAKNTLYLQMSSLKSEDTAMYYCTRDDDYDVKVFAYWGQGTLVTVSA
VL: DIVMSQSPSSLAVSAGEKVTMNCKSSRSLLNSRIRKNYLAWYQQKPGQSPKLLIYWASTRESGVPDRFTGSGSGTDFTLTISSVQAEDLAVYYCKQSYNLLTFGAGTKLELK
notes: mouse hybridoma antibody; also called rodent 1749; murine 1749.1.3 anti-MCAM antibody
